Data: patent US20210145935A1

Key:
[1] = molecular target: H1N1 pseudotyped lentiviral particles (H1 and N1 from swine H1N1 A/California/04/09) (influenza A virus H1N1 A/California/04/09); assay: cell-based or functional assay
[2] = molecular target: H3N2 pseudotyped lentiviral particles (H3 from A/Denmark/70/03, N2 from A/Texas/50/2012) (influenza A virus H3N2 A/Denmark/70/03; influenza A virus H3N2 A/Texas/50/2012); assay: cell-based or functional assay

B1: human complement factor H purified from human plasma, P08603 19-1231 (protein)
chain: EDCNELPPRRNTEILTGSWSDQTYPEGTQAIYKCRPGYRSLGNVIMVCRKGEWVALNPLRKCQKRPCGHPGDTPFGTFTLTGGNVFEYGVKAVYTCNEGYQLLGEINYRECDTDGWTNDIPICEVVKCLPVTAPENGKIVSSAMEPDREYHFGQAVRFVCNSGYKIEGDEEMHCSDDGFWSKEKPKCVEISCKSPDVINGSPISQKIIYKENERFQYKCNMGYEYSERGDAVCTESGWRPLPSCEEKSCDNPYIPNGDYSPLRIKHRTGDEITYQCRNGFYPATRGNTAKCTSTGWIPAPRCTLKPCDYPDIKHGGLYHENMRRPYFPVAVGKYYSYYCDEHFETPSGSYWDHIHCTQDGWSPAVPCLRKCYFPYLENGYNQNYGRKFVQGKSIDVACHPGYALPKAQTTVTCMENGWSPTPRCIRVKTCSKSSIDIENGFISESQYTYALKEKAKYQCKLGYVTADGETSGSITCGKDGWSAQPTCIKSCDIPVFMNARTKNDFTWFKLNDTLDYECHDGYESNTGSTTGSIVCGYNGWSDLPICYERECELPKIDVHLVPDRKKDQYKVGEVLKFSCKPGFTIVGPNSVQCYHFGLSPDLPICKEQVQSCGPPPELLNGNVKEKTKEEYGHSEVVEYYCNPRFLMKGPNKIQCVDGEWTTLPVCIVEESTCGDIPELEHGWAQLSSPPYYYGDSVEFNCSESFTMIGHRSITCIHGVWTQLPQCVAIDKLKKCKSSNLIILEEHLKNKKEFDHNSNIRYRCRGKEGWIHTVCINGRWDPEVNCSMAQIQLCPPPPQIPNSHNMTTTLNYRDGEKVSVLCQENYLIQEGEEITCKDGRWQSIPLCVEKIPCSQPPQIEHGTINSSRSSQESYAHGTKLSYTCEGGFRISEENETTCYMGKWSSPPQCEGLPCKSPPEISHGVVAHMSDSYQYGEEVTYKCFEGFGIDGPAIAKCLGEKWSHPPSCIKTDCLSLPSFENAIPMGEKKDVYKAGEQVTYTCATYYKMDGASNVTCINSRWTGRPTCRDTSCVNPPTVQNAYIVSRQMSKYPSGERVRYQCRSPYEMFGDEEVMCLNGNWTEPPQCKDSTGKCGPPPPIDNGDITSFPLSVYAPASSVEYQCQNLYQLEGNKRITCRNGQWSEPPKCLHPCVISREIMENYNIALRWTAKQKLYSRTGESVEFVCKRGYRLSSRSHTLRTTCWDGKLEYPTCAKR
With B1 the luciferase reporter activity of transduced MDCK cells, 40 µg/ml protein [1] was 25 % reduction and the luciferase reporter activity of transduced MDCK cells, 40 µg/ml protein [2] was 50 % increase.
